# Data published in article PMC5356828.
# Legend:
# [1] = target: P-glycoprotein (human (endogenous in primary skin fibroblasts)) (UniProt P08183); test: co-IP; lysates of hypertrophic scar fibroblasts (HF) treated with latrunculin-A (0.2 μM) or DMSO for 12 h; IP with anti-P-glycoprotein or anti-MRP1 antibody, immunoblot for actin
# [2] = target: multidrug resistance-associated protein 1 (human (endogenous in primary skin fibroblasts)) (UniProt P33527); test: as above
substance,measurement,setting,value
actin (from UniProt P60709 1-375) (natural protein),percent loss of the co-precipitate after latrunculin-A,[1],90%
same,percent loss of the co-precipitate after latrunculin-A,[2],70%
